Patent US20260193348A1 (ANTENGENE BIOLOGICS, published 2026)
Substitutions are numbered along the chain they refer to. Numbers in names are those of the source.

B1: Bis-40E9-L2H3-Y54G.H (bispecific antibody)
heavy: EVQLVQSGAEVKKPGASVKVSCKASGYTFTSYVIHWVRQAPGQGLEWMGYFNPYNDGTKYNEEFKGRVTLTSDKSTSTAYMELRSLRSDDTAVYYCARGGVRRYFDVWGQGTTVTVSS
heavy (part 1 of 2): B1 heavy
heavy (part 2 of 2): GGGGSGGGGSEVQLVQSGAEVKKPGSSVKVSCKASGYTFSSYVIHWVRQAPGQCLEWMGYINPGNDVIKYNEKFKGRVTLTSDKSTSTAYMELSSLRSEDTAVYYCARDSYYSYDGFAYWGQGTLVTVSSGGGGSGGGGSGGGGSGGGGSEIVLTQSPDFQSVTPKEKVTITCSASSSVSYMHWYQQKPDQSPKRLIYDTSKLASGVPSRFSGSGSGTDFTLTINSLEAEDAATYYCQQWSSNPPTFGCGTKVEIKGGGGSGGGGS
light: DIQMTQSPSSLSASVGDRVTITCRASQDIGSNLNWLQQKPGKAIKRLIYATFGLDSGVPSRFSGSRSGTDFTLTISSLQPEDFATYYCQQYASFPYTFGGGTKVEIK
notes: Fab-scFv-Fab (2+1), LALA; not shown: CH1; CL; CH2-CH3 with L234A, L235A; heavy chain constant region with L234A, L235A
B2: JNJ-64407564 (bispecific antibody, V domains shown)
VH 1: QVQLVQSGAEVKKPGASVKVSCKASGYSFTGYTMNWVRQAPGQGLEWMGLINPYNSDTNYAQKLQGRVTMTTDTSTSTAYMELRSLRSDDTAVYYCARVALRVALDYWGQGTLVTVSS
VL 1: DIQMTQSPSSLSASVGDRVTITCKASQNVATHVGWYQQKPGKAPKRLIYSASYRYSGVPSRFSGSGSGTEFTLTISNLQPEDFATYYCQQYNRYPYTFGQGTKLEIK
VH 2: EVQLVESGGGLVQPGGSLRLSCAASGFTFNTYAMNWVRQAPGKGLEWVARIRSKYNNYATYYAASVKGRFTISRDDSKNSLYLQMNSLKTEDTAVYYCARHGNFGNSYVSWFAYWGQGTLVTVSS
VL 2: QTVVTQEPSLTVSPGGTVTLTCRSSTGAVTTSNYANWVQQKPGQAPRGLIGGTNKRAPGTPARFSGSLLGGKAALTLSGVQPEDEAEYYCALWYSNLWVFGGGTKLTVL
notes: construct per WO2018017786A2; also called benchmark antibody
B3: Bis-40E9-L2H3-D105R.H (bispecific antibody)
heavy 1: not shown
heavy 2: EVQLVQSGAEVKKPGASVKVSCKASGYTFTSYVIHWVRQAPGQGLEWMGYFNPYNDGTKYNEEFKGRVTLTSDKSTSTAYMELRSLRSDDTAVYYCARGGVRRYFDVWGQGTTVTVSSASTKGPSVFPLAPSSKSTSGGTAALGCLVKDYFPEPVTVSWNSGALTSGVHTFPAVLQSSGLYSLSSVVTVPSSSLGTQTYICNVNHKPSNTKVDKKVEPKSCGGGGSGGGGSEVQLVQSGAEVKKPGSSVKVSCKASGYTFSSYVIHWVRQAPGQCLEWMGYINPYNDVIKYNEKFKGRVTLTSDKSTSTAYMELSSLRSEDTAVYYCARDSYYSYRGFAYWGQGTLVTVSSGGGGSGGGGSGGGGSGGGGSEIVLTQSPDFQSVTPKEKVTITCSASSSVSYMHWYQQKPDQSPKRLIYDTSKLASGVPSRFSGSGSGTDFTLTINSLEAEDAATYYCQQWSSNPPTFGCGTKVEIKGGGGSGGGGSDKTHTCPPCPAPEAAGGPSVFLFPPKPKDTLMISRTPEVTCVVVDVSHEDPEVKFNWYVDGVEVHNAKTKPREEQYNSTYRVVSVLTVLHQDWLNGKEYKCKVSNKALPAPIEKTISKAKGQPREPQVCTLPPSREEMTKNQVSLSCAVKGFYPSDIAVEWESNGQPENNYKTTPPVLDSDGSFFLVSKLTVDKSRWQQGNVFSCSVMHEALHNHYTQKSLSLSPGK
light: DIQMTQSPSSLSASVGDRVTITCRASQDIGSNLNWLQQKPGKAIKRLIYATFGLDSGVPSRFSGSRSGTDFTLTISSLQPEDFATYYCQQYASFPYTFGGGTKVEIKRTVAAPSVFIFPPSDEQLKSGTASVVCLLNNFYPREAKVQWKVDNALQSGNSQESVTEQDSKDSTYSLSSTLTLSKADYEKHKVYACEVTHQGLSSPVTKSFNRGEC
notes: Fab-scFv-Fab (2+1), LALA
B4: Bis-40E9-L2H3-Y101F.H (bispecific antibody)
heavy 1: not shown
heavy 2: B3 heavy 2 with Y332F, R336D
light: B3 light
notes: Fab-scFv-Fab (2+1), LALA

Key:
[1] = molecular target: T1, GPRC5D (G-protein coupled receptor family C group 5 member D), human, on multiple myeloma cell lines (human, UniProt Q9NZD1 1-345); assay: FACS, MM.1S cells
T1 construct: whole, on cells; Target as carried by MM.1S, MOLP-8, L363 and RPMI8226 cells
T1 sequence (Q9NZD1 whole entry): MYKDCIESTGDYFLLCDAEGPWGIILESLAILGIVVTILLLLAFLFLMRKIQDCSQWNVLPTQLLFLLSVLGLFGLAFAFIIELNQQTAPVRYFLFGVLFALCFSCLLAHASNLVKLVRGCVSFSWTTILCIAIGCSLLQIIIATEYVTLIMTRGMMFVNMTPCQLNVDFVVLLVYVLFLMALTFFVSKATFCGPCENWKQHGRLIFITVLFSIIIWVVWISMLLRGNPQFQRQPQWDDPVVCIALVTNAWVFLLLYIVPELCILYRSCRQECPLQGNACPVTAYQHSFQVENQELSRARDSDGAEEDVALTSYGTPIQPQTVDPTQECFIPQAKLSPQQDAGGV
Method: (§1) The binding affinities of the generated humanized Fab-scFv-Fab bispecific antibodies were determined by FACS analysis. […] (a) Jurkat cells were washed by Staining Buffer (PBS+1% BSA) in round bottom 96-well plate. [0833] (b) Antibody dilutions and cells were added to each well, incubated at 4 degrees for 1 hour. [0834] (c) Cells were spined down at 300 g for 3 minutes, and the supernatants were discarded. [0835] (d) Cells were washed with Staining Buffer. […] (e) Step (d) was repeated and the cells were incubated for 0.5 hours at 4 degrees with secondary antibody in Staining Buffer. [0837] (f) After incubation, step (d)-(e) were repeated. […] (g) Staining Buffer was added and fluorescence signals were recorded by flow cytometry.
(§2) The binding affinities of the generated humanized Fab-scFv-Fab bispecific antibodies to different multiple myeloma cell lines were evaluated by FACS analysis. The protocol for FACS analysis is identical to that described in Example 3.2, except that different cells were used in this example, i.e., multiple myeloma cell lines (MM.1S, […], L363 and RPMI 8226) were used in this example.

[2] = molecular target: T1, GPRC5D (G-protein coupled receptor …); assay: FACS, MOLP-8 cells
Method: as §1, §2

[3] = molecular target: T1, GPRC5D (G-protein coupled receptor …); assay: cell-based or functional assay
[4] = molecular target: T2, CD3 (Cluster of Differentiation 3 protein), human, on T cells / Jurkat cells (human, UniProt P07766 23-207; P04234 22-171; P09693 23-182); assay: FACS, Jurkat cells, antibody at 50 µg/ml
T2 construct: whole, on cells; part of the TCR-CD3 complex; also called human CD3
T2 sequence (P07766 23-207, chain 1 of 3): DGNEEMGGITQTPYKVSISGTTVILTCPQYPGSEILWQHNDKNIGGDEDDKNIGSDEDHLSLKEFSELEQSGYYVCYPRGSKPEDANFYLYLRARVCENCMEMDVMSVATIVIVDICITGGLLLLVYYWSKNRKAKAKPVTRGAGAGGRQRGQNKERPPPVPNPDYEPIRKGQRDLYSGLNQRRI
T2 sequence (P04234 22-171, chain 2 of 3): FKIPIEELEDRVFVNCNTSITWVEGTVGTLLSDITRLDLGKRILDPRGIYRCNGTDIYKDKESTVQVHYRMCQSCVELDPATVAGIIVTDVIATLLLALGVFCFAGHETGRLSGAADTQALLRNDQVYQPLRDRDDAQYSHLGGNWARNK
T2 sequence (P09693 23-182, chain 3 of 3): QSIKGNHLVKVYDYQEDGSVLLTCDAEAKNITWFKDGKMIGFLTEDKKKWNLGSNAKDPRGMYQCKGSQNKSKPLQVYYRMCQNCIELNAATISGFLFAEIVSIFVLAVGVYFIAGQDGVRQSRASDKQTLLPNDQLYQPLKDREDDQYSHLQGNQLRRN
Method: as §1

[5] = molecular target: T1, GPRC5D (G-protein coupled receptor …); assay: cell-based or functional assay; remark: listed apart in the source
[6] = molecular target: T2, CD3 (Cluster of Differentiation 3 …); assay: FACS, CD3+ T cells isolated from normal donors
Method: To evaluate the binding affinity of the generated chimeric bispecific antibody to T cells, the isolated CD3⁺ T cells were stained by antibodies and the binding affinity was determined by FACS analysis. The protocol of FACS analysis is described as follows: [0785] (a) CD3⁺ T cells were isolated from normal donors. [0786] (b) The isolated CD3⁺ T cells were washed by Staining Buffer (PBS+1% BSA) in round bottom 96-well plate. […] (c) Antibody dilutions were added to each well and mixed with the CD3+ T cells, incubated at 4 degrees for 1 hour. […] (d) Cells were spined at 300 g for 3 minutes, then the supernatants were discarded. [0789] (e) Cells were washed with Staining Buffer. [0790] (f) Step (d) was repeated, and the cells were incubated with secondary antibody in Staining Buffer for 0.5 hours at 4 degrees. [0791] (g) After incubation, step (d)-(e) were repeated. [0792] (h) Cells were resuspended in Staining Buffer and fluorescence signals were recorded by flow cytometry.

Binder	EC50 [1] [nM]	Top (MFI) [1] [MFI]	EC50 [2] [nM]	Top (MFI) [2] [MFI]	EC50 (nM), luciferase assay, L363 [3] [nM]	EC50 (nM), luciferase assay, MM.1S [3] [nM]	EC50 (nM), luciferase assay, MOLP-8 [3] [nM]	Top (RLU), luciferase assay, L363 [3] [RLU]	Top (RLU), luciferase assay, MM.1S [3] [RLU]	Top (RLU), luciferase assay, MOLP-8 [3] [RLU]	MFI (50 µg/ml) [4] [MFI]	IC50 (nM), T-Cell Dependent Cytotoxicity, MM.1S [5] [nM]	IC50 (nM), T-Cell Dependent Cytotoxicity, MOLP-8 [5] [nM]	IC50 (nM), T-Cell Dependent Cytotoxicity, RPMI8226 [5] [nM]	Top (%), T-Cell Dependent Cytotoxicity, MM.1S [5] [%]	Top (%), T-Cell Dependent Cytotoxicity, MOLP-8 [5] [%]	Top (%), T-Cell Dependent Cytotoxicity, RPMI8226 [5] [%]	EC50 [6] [nM]	Top (MFI) [6] [MFI]
B1	8.93	1330	0.398	952	0.0525	0.0506	0.0455	776	5840	1060	137	0.00726	0.00117	0.0453	75.5	68.7	10.4	–	–
B2	–	–	–	–	–	–	–	–	–	–	1030	–	–	–	–	–	–	11.4	534
B3	6.16	1070	0.21	1090	0.0397	0.423	0.0423	942	5240	1080	247	0.00579	0.00463	0.0366	75.7	70.1	12.4	–	–
B4	10.1	1150	0.466	876	0.155	0.0398	–	1600	5630	1470	207	0.00723	0.00499	0.0226	62.8	77.1	12.2	–	–
